In paper PMC8533794, “Selection of a Nuclease-Resistant RNA Aptamer Targeting CD19”:

Experiments:
[1] = target: T1, CD19 on transfected COS-7 cells (human) (UniProt P15391); experiment: cell binding RT-qPCR; conditions: 200 nM aptamer, poly(I); 2'-fluoro pyrimidines; BLI: running buffer not stated (tips prehydrated in PBS), temperature not stated; cell binding: serum-free medium, 37 C, 30 min, with poly(I) 0.1 ug/uL (qPCR) …
T1 sequence: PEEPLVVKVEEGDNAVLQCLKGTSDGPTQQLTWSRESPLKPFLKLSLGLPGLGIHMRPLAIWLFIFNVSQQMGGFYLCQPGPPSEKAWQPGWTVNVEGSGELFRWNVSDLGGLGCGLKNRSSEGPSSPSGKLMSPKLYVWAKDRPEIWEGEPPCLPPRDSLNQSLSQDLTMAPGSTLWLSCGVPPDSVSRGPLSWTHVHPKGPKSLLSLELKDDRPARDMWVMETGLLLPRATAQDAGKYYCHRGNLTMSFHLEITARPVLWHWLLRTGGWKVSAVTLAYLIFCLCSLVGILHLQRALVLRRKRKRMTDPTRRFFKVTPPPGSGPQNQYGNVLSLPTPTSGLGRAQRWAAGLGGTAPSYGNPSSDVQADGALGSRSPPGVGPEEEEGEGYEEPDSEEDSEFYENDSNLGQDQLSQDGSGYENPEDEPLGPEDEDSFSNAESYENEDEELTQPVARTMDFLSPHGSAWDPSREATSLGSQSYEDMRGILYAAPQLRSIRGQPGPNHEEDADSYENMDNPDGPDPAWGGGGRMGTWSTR

[2] = target: T2, endogenous CD19 of MEC-1 cells (human (MEC-1 B-CLL cell line)) (UniProt P15391); experiment: flow cytometry; conditions: 2'-fluoro pyrimidines; BLI: running buffer not stated (tips prehydrated in PBS), temperature not stated; cell binding: serum-free medium, 37 C, 30 min, with poly(I) 0.1 ug/uL (qPCR) …
T2 sequence: T1 sequence

[3] = target: T3, rhCD19 (recombinant human CD19, extracellular domain) (human, UniProt P15391 20-291); experiment: BLI; up to 1 uM aptamer; BLI: running buffer not stated (tips prehydrated in PBS), temperature not stated; cell binding: serum-free medium, 37 C, 30 min, with poly(I) 0.1 ug/uL (qPCR) or tRNA 0.4 ug/uL plus 100 nM Ctrl Apt (FACS); pull-down lysis: 10 mM Tris-HCl pH 7.5, 200 mM NaCl, 5 mM EDTA, 0.1% Triton X-100; conditions: protein: recombinant
[4] = target: T3, rhCD19 (recombinant human CD19, …); experiment: BLI; 2.5-100 nM aptamer; BLI: running buffer not stated (tips prehydrated in PBS), temperature not stated; cell binding: serum-free medium, 37 C, 30 min, with poly(I) 0.1 ug/uL (qPCR) or tRNA 0.4 ug/uL plus 100 nM Ctrl Apt (FACS); pull-down lysis: 10 mM Tris-HCl pH 7.5, 200 mM NaCl, 5 mM EDTA, 0.1% Triton X-100; conditions: protein: recombinant
[5] = target: rhBCMA (B Cell Maturation Antigen) (human, UniProt Q02223 1-54); experiment: BLI; up to 1 uM aptamer; BLI: running buffer not stated (tips prehydrated in PBS), temperature not stated; cell binding: serum-free medium, 37 C, 30 min, with poly(I) 0.1 ug/uL (qPCR) or tRNA 0.4 ug/uL plus 100 nM Ctrl Apt (FACS); pull-down lysis: 10 mM Tris-HCl pH 7.5, 200 mM NaCl, 5 mM EDTA, 0.1% Triton X-100; conditions: protein: recombinant
Chain of rhBCMA (B Cell Maturation Antigen) (Q02223 1-54): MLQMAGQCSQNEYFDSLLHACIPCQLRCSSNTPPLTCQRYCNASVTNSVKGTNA

## CCUGUUGUUCGACAGGAGGCUCACAACAGG [B88.T2]
[1]
  binding signal (fold over parental COS-7): 7

## UGAGCCCUGUUCGACAGGAGGCUCA [B85.T2 (FAM)]
[2]
  binding signal (fold over Jurkat): 2

## UGAGCCCUGUUCGACAGGAGGCUCA [B85.T2]
[1]
  binding signal (fold over parental COS-7): 22

## UUCGUACCGGGUAGGUUGGCUUGCACAUAGAACGUGUCA (structured_RNA, 2'-fluoro pyrimidines) [Ctrl Apt]
[3]
  binding result: no binding

## UGAGCCCUGUUCGACAGGAGGCUCA (structured_RNA, 2'-fluoro pyrimidines) [B85.T2]
[4]
  Kd: 49.9 ± 13 nM
[5]
  binding result: no binding
